Here are results for one substance from patent publication US20060147453A1.

This test addresses decorin. The experiment in a line: cell-based or functional assay.

The substance “Full length human WISP-1-Fc fusion protein (baculovirus, Sf9 insect cells) (from UniProt O95388 23-367)” had an HAS2 expression in NRK cells plated on the coated surface (real time RT-PCR) of 3 fold.
